Test results from PMC7954794, “Protein context shapes the specificity of SH3 domain-mediated interactions in vivo” (Nature Communications, 2021).

Test system: growth of yeast strains under 51 stress conditions
Test: Growth assays in 51 stress conditions (Fig. 1E-F, S2D, S5B)
Assay type: cell-based, Saccharomyces cerevisiae
Set-up: key to Growth (Fig. S2D) / growth of ABP1 SH3-swapped strains in stress condition: log2 colony size, average of median per strain (growth score)
Settings: ABP1 SH3-swapped strains
In short: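 Yeast WT, SH3-deleted, KO, SH3-swapped and SH3-shuffled strains pinned in 1536 format, 12 replicates each; pregrown on YPD 2 days at 30 °C, then replicated onto 51 media at 37 °C and imaged every 2 h. Growth score = mean of per-plate median log2 colony size at 74 h.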

B1: BOI1 (protein, UniProt P38041 1-980, looked up)
BEM1-interacting protein 1: MSLEGNTLGKGAKSFPLYIAVNQYSKRMEDELNMKPGDKIKVITDDGEYNDGWYYGRNLRTKEEGLYPAVFTKRIAIEKPENLHKSPTQESGNSGVKYGNLNDSASNIGKVSSHQQENRYTSLKSTMSDIDKALEELRSGSVEQEVSKSPTRVPEVSTPQLQDEQTLIQEKTRNEENTTHDSLFSSTADLNLSSESLKNISKSNISTKSLEPSSESVRQLDLKMAKSWSPEEVTDYFSLVGFDQSTCNKFKEHQVSGKILLELELEHLKELEINSFGIRFQIFKEIRNIKSAIDSSSNKLDADYSTFAFENQAAQLMPAATVNRDEIQQQISSKCNKLSSESSDRKSSSVTTELQRPSSVVVNPNFKLHDPAEQILDMTEVPNLFADKDIFESPGRAPKPPSYPSPVQPPQSPSFNNRYTNNNARFPPQTTYPPKNKNPTVYSNGLIPNSSTSSDNSTGKFKFPAMNGHDSNSRKTTLTSATIPSINTVNTDESLPAISNISSNATSHHPNRNSVVYNNHKRTESGSSFVDLFNRISMLSPVKSSFDEEETKQPSKASRAVFDSARRKSSYGHSRDASLSEMKKHRRNSSILSFFSSKSQSNPTSPTKQTFTIDPAKMTSHSRSQSNSYSHARSQSYSHSRKHSLVTSPLKTSLSPINSKSNIALAHSETPTSSNNKEAVSQPSEGKHKHKHKHKSKHKHKNSSSKDGSSEEKSKKKLFSSTKESFVGSKEFKRSPSELTQKSTKSILPRSNAKKQQTSAFTEGIRSITAKESMQTADCSGWMSKKGTGAMGTWKQRFFTLHGTRLSYFTNTNDEKERGLIDITAHRVLPASDDDRLISLYAASLGKGKYCFKLVPPQPGSKKGLTFTEPRVHYFAVENKSEMKAWLSAIIKATIDIDTSVPVISSYATPTIPLSKAQTLLEEARLQTQLRDAEEEEGRDQFGWDDTQNKRNSNYPIEQDQFETSDYLESSAFEYPGGRL
Growth (Fig. S2D) (Bathophenanthroline.0.1uM): 10.8558
Growth (Fig. S2D) (Bathophenanthroline.10uM): 10.6819
Growth (Fig. S2D) (Bathophenanthroline.1uM): 10.8124
Growth (Fig. S2D) (CaCl2.100mM): 10.8898
Growth (Fig. S2D) (CaCl2.250mM): 10.7569
Growth (Fig. S2D) (CaCl2.500mM): 10.2369
Growth (Fig. S2D) (Caffein.10mM): 9.961
Growth (Fig. S2D) (Caffein.2mM): 10.9473
Growth (Fig. S2D) (CdCl2.100uM): 9.222
Growth (Fig. S2D) (CdCl2.10uM): 10.8438
Growth (Fig. S2D) (CdCl2.50uM): 9.731
Growth (Fig. S2D) (CuSO4.1mM): 10.511
Growth (Fig. S2D) (CuSO4.5mM): 7.921
Growth (Fig. S2D) (Cycloheximide.0.05.uM): 11.026
Growth (Fig. S2D) (Cycloheximide.0.2.uM): 10.6068
Growth (Fig. S2D) (Cycloheximide.0.5.uM): 10.1487
Growth (Fig. S2D) (DMSO.2.): 10.9996
Growth (Fig. S2D) (DMSO.6.): 9.7528
Growth (Fig. S2D) (DMSO.8.): 9.017
Growth (Fig. S2D) (Ethanol.2.): 10.7382
Growth (Fig. S2D) (Ethanol.6.): 10.327
Growth (Fig. S2D) (Ethanol.8.): 10.13
Growth (Fig. S2D) (Galactose.2.): 10.7623
Growth (Fig. S2D) (Glycerol.2.): 9.776
Growth (Fig. S2D) (Hydroxyurea.25mM): 10.8154
Growth (Fig. S2D) (Hygromycin.190uM): 11.0114
Growth (Fig. S2D) (Hygromycin.19uM): 10.9627
Growth (Fig. S2D) (Hygromycin.95uM): 10.9456
Growth (Fig. S2D) (MMS.0.004.): 11.0063
Growth (Fig. S2D) (MMS.0.02.): 10.7015
Growth (Fig. S2D) (MMS.0.04.): 10.0905
Growth (Fig. S2D) (Menadione.100uM): 10.612
Growth (Fig. S2D) (Menadione.200uM): 10.4246
Growth (Fig. S2D) (Menadione.50uM): 10.8341
Growth (Fig. S2D) (NaCl.0.25M): 10.7827
Growth (Fig. S2D) (NaCl.1M): 9.573
Growth (Fig. S2D) (Nitroquinoline.10uM): 10.6267
Growth (Fig. S2D) (Nitroquinoline.50uM): 10.6407
Growth (Fig. S2D) (Nystatin.0.01uM): 11.0406
Growth (Fig. S2D) (Nystatin.0.1uM): 11.0134
Growth (Fig. S2D) (Raffinose.2.): 11.0354
Growth (Fig. S2D) (Rapamycin.10nM): 9.9199
Growth (Fig. S2D) (Rapamycin.50nM): 9.475
Growth (Fig. S2D) (SC.pH3): 10.3897
Growth (Fig. S2D) (SC.pH6): 10.9841
Growth (Fig. S2D) (SDS.0.01.): 10.9238
Growth (Fig. S2D) (SDS.0.02.): 11.0048
Growth (Fig. S2D) (SDS.0.05.): 10.8898
Growth (Fig. S2D) (Sorbitol.10mM): 10.9854
Growth (Fig. S2D) (Sorbitol.1mM): 11.0069
Growth (Fig. S2D) (Sorbitol.5mM): 10.9417
